The supplement of paper PMC6755084

B1: F1*; a variant is named by its letters at N, in order (parent)
chain: GAGACCGCAACTGAAAAGTTGTTATCACTTGTCGNANNNNNNTTNGNNNGGNTNNNGTTCTGCACGTAGAAGCAAAAGGC
B2: F1*; the commonest letter at each place (parent)
chain: GAGACCGCAACTGAAAAGTTGTTATCACTTGTCGTAAGACACTTTGGATGGGTTGAAGTTCTGCACGTAGAAGCAAAAGGC
B3: F1*; a variant is named by its letters at N, in order (parent)
chain: GAGACCGCAACTGAAAAGTTGTTATCNNNNNNNNAANNNNNTTNGNNGGGTTGAAGTTCTGCACGTAGAAGCAAAAGGC

Variants of: B1
Test: fraction ligated after 30 min (ligated reads / total reads); higher = more ligase activity
Details: with F1*sub RNA substrate (template-directed ligation), 42 °C
Experimental: (§1)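 Chip-synthesised pool of F1* ligase ribozyme variants (all single and double substitutions, single, double and triple deletions in the catalytic core and GAA bulge, plus designed variants) was transcribed with T7 and reacted as a pool with excess substrate F1*sub for 30 min at 42 C in 50 mM EPPS pH 8.5, 25 mM MgCl2. Ligated and unligated bands were separated by PAGE, barcoded by RT and deep sequenced; fraction ligated = ligated reads / total reads per variant, relative activity = FL / FL of wild type (0.826). Sequences are the DNA template of the ribozyme.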

Variant	fraction ligated
TAGACACTGATGTCC	0.0263
TAGACACTGATGTCA	0.792
TAGACACTGATGTCG	0.0205
TAGACACTGATGTCT	0.0184
TAGACACTGATTGAA	0.703
TAGACATGATGTGAA	0.829
TGACACTGATGTGAA	0.849
TAGACACTGATGTAA	0.834
TAGACACTGATGTAT	0.762
TAGACACTGATGTAC	0.56
TAGACACTGATGTAG	0.773
TAGACACGATGTGAA	0.799
TAGACACTATGTGAA	0.782
TAGCACTGATGTGAA	0.827
TAGAACTGATGTGAA	0.821
TAGACACTGATGTTT	0.0147
TAGACACTGATGTTG	0.0257
TAGACACTGATGTTC	0.0084
TAGACACTGATGTTA	0.834
TAGACACTGAGTGAA	0.168
AGACACTGATGTGAA	0.843
TAGACCTGATGTGAA	0.839
TAACACTGATGTGAA	0.832
TAGACACTGATGTGC	0.802
TAGACACTGATGTGA	0.848
TAGACACTGATGTGG	0.352
TAGACACTGATGTGT	0.349
TAGACACTGTGTGAA	0.354

Variants of: B2
Test: as above
Details: with F1*sub RNA substrate (template-directed ligation), 42 °C
Experimental: as §1

Variant	fraction ligated
T23G A24C	0.773
T23G A24G	0.091
T23G A24T	0.794
T23A T29C	0.797
T23A T29G	0.82
T23A T29A	0.826
T23C C26T	0.779
T23C C26G	0.136
T23C C26A	0.371
T23C T29G	0.766
T23C T29A	0.82
T23C T29C	0.779
T23C A56C	0.518
T23C A56G	0.698
T23C A56T	0.802
T23G C26G	0.74
T23G C26T	0.82
T23G C26A	0.789
T23G C42G	0.829
T23G C42T	0.838
T23G C42A	0.835
T23C T35A	0.845
T23C T35G	0.83
T23C T35C	0.818

Variant	fraction ligated
T23C G55C	0.469
T23C G55A	0.783
T23C G55T	0.786
T23C T43G	0.745
T23C T43C	0.759
T23C T43A	0.815
T23C	0.846
T23G	0.855
T23A	0.837
T23C G31T	0.787
T23C G31A	0.619
T23C G31C	0.666
T23A G34T	0.812
T23A G34A	0.814
T23A G34C	0.813
T23A G38T	0.795
T23A G38C	0.799
T23A G38A	0.809
T23C A48T	0.0663
T23C A48C	0.697
T23C A48G	0.696
T23A C40G	0.838
T23A C40T	0.833
T23A C40A	0.815

Variant	fraction ligated
T23A T35G	0.817
T23A T35A	0.827
T23A T35C	0.811
T23C T30G	0.833
T23C T30C	0.789
T23C T30A	0.802
T23A C28T	0.753
T23A C28G	0.804
T23A C28A	0.787
T23C T25A	0.582
T23C T25G	0.672
T23C T25C	0.782
T23G C28G	0.791
T23G C28T	0.782
T23G C28A	0.789
T23A A24C	0.782
T23A A24T	0.781
T23A A24G	0.764
T23A T43C	0.783
T23A T43G	0.81
T23A T43A	0.803
T23C T44C	0.8
T23C T44G	0.779
T23C T44A	0.817

Variant	fraction ligated
T23G A37G	0.867
T23G A37T	0.821
T23G A37C	0.819
T23A A48C	0.727
T23A A48G	0.596
T23A A48T	0.68
T23A A36G	0.847
T23A A36C	0.826
T23A A36T	0.838
T23C A27T	0.804
T23C A27G	0.781
T23C A27C	0.775
T23A A41T	0.807
T23A A41G	0.765
T23A A41C	0.757
T23A A37C	0.82
T23A A37G	0.84
T23A A37T	0.811
T23C A39G	0.831
T23C A39C	0.788
T23C A39T	0.803
T23A A27G	0.794
T23A A27C	0.82
T23A A27T	0.794

Variant	fraction ligated
T23A C26G	0.116
T23A C26A	0.318
T23A C26T	0.794
T23A T44A	0.819
T23A T44C	0.784
T23A T44G	0.801
T23C C40G	0.766
T23C C40T	0.811
T23C C40A	0.792
T23C A37T	0.796
T23C A37C	0.821
T23C A37G	0.837
T23G G34T	0.794
T23G G34A	0.802
T23G G34C	0.799
T23G G31T	0.868
T23G G31A	0.849
T23G G31C	0.849
T23C A24G	0.794
T23C A24T	0.501
T23C A24C	0.73
T23A G31T	0.789
T23A G31A	0.816
T23A G31C	0.779

Variant	fraction ligated
T23C T49A	0.792
T23C T49C	0.715
T23C T49G	0.78
T23A T25A	0.652
T23A T25C	0.762
T23A T25G	0.737
T23A T45C	0.222
T23A T45A	0.373
T23A T45G	0.0214
T23G A27C	0.785
T23G A27G	0.788
T23G A27T	0.801
T23A T30C	0.793
T23A T30G	0.803
T23A T30A	0.797
T23C G50A	0.632
T23C G50C	0.258
T23C G50T	0.782
T23C A36T	0.823
T23C A36C	0.828
T23C A36G	0.817
T23A A57G	0.818
T23A A57T	0.813
T23A A57C	0.805

Variant	fraction ligated
T23C G34C	0.774
T23C G34A	0.819
T23C G34T	0.804
T22C	0.819
T23A G55T	0.783
T23A G55C	0.292
T23A G55A	0.801
T23C A41T	0.808
T23C A41G	0.784
T23C A41C	0.783
T23G C40T	0.864
T23G C40A	0.873
T23G C40G	0.812
T23G A48T	0.781
T23G A48G	0.788
T23G A48C	0.74
T23C G46C	0.738
T23C G46T	0.614
T23C G46A	0.8
T23A G46T	0.479
T23A G46C	0.731
T23A G46A	0.749
T23A C33T	0.848
T23A C33G	0.838

Variant	fraction ligated
T23A C33A	0.855
T23G C33A	0.866
T23G C33T	0.893
T23G C33G	0.848
T23C C42T	0.804
T23C C42G	0.761
T23C C42A	0.762
T23C A57C	0.81
T23C A57G	0.851
T23C A57T	0.794
T23C C33G	0.819
T23C C33T	0.839
T23C C33A	0.786
T23G A24C A27G C28A C42G G47A	0.812
T23A A39T	0.794
T23A A39C	0.789
T23A A39G	0.819
T23G G38A	0.803
T23G A41G	0.746
T23G A41T	0.792
T23G A41C	0.727
T23A T32C	0.771
T23A T32A	0.859
T23A T32G	0.829

Variant	fraction ligated
T23G A57T	0.812
T23G A57G	0.819
T23G A57C	0.779
T23A G47C	0.0295
T23A G47T	0.09
T23A G47A	0.783
T23C T32C	0.788
T23C T32A	0.821
T23C T32G	0.827
T23C T45C	0.208
T23C T45A	0.266
T23C T45G	0.027
T23C C28T	0.777
T23C C28G	0.732
T23C C28A	0.73
T23G A36G	0.885
T23G A36T	0.841
T23G A36C	0.882
T23C G47A	0.806
T23C G47C	0.0373
T23C G47T	0.0952
T23A T49C	0.731
T23A T49A	0.791
T23A T49G	0.827

Variant	fraction ligated
T23A A56C	0.653
T23A A56T	0.754
T23A A56G	0.686
T23G A56C	0.794
T23G A56T	0.772
T23G A56G	0.792
T23C G38C	0.802
T23C G38A	0.815
T23C G38T	0.803
T23A G50C	0.255
T23A G50T	0.699
T23A G50A	0.477
T23A C42T	0.817
T23A C42G	0.822
T23A C42A	0.817
T23G A39G	0.867
T23G A39T	0.79
T23G A39C	0.776

Variants of: B3
Test: as above
Details: with F1*sub RNA substrate (template-directed ligation), 42 °C
Experimental: as §1

Variant	fraction ligated
ACTTGTCTACACTGAT	0.817
ACTGTCGTGACATGAT	0.846
ACTTTCGTGACATGAT	0.832
ATTGTCGTGACACTAT	0.776
ACTGTCGTGAACTGAT	0.858
ACTTGTGTGAACTGAT	0.867
ACTTTCGTGACACTGA	0.0557
ACTTTCGTGACACTGT	0.0695
ACTGTCGTACACTGAT	0.84
ACTGTCGTGACCTGAT	0.849
ACTTGTGTGACACTGA	0.0628
ACTTGTGTGACACTGT	0.0697
ATTGTCGTGACCTGAT	0.79
ATTGTCGTGCACTGAT	0.777
ACTTGTCTGACACTAT	0.775
CTTGTCGTGACCTGAT	0.786
ACTTGTCGGCACTGAT	0.78
ACTTTCGTGAACTGAT	0.873
ACTTGCGTGACACTGT	0.143
ACTTGCGTGACACTGA	0.128
ATTGTCGTGACATGAT	0.811
CTTGTCGTACACTGAT	0.772
ACTTGTGTGACATGAT	0.841
CTTGTCGTGACATGAT	0.794

Variant	fraction ligated
ACTTGTCGGAACTGAT	0.813
ACTTGCGTGCACTGAT	0.856
ACTTTCGTGACCTGAT	0.773
ACTGTCGTGACACGAT	0.812
ACTTGCGTGACACGAT	0.801
ACTTGCGTGACATGAT	0.847
CTTGTCGTGACACTAT	0.779
ACTTTCGTGACACTAT	0.793
ATTGTCGTGAACTGAT	0.838
ACTTTCGTACACTGAT	0.811
ATTGTCGTACACTGAT	0.799
CTTGTCGTGCACTGAT	0.776
CTTGTCGTGAACTGAT	0.809
ACTGTCGTGACACTGA	0.13
ACTGTCGTGACACTGT	0.694
ACTGTCGTGCACTGAT	0.833
ACTTGTGTACACTGAT	0.86
ACTTGTCGACACTGAT	0.822
ACTTGTGTGACACTAT	0.797
ACTTGCGTACACTGAT	0.837
ACTTGTCTGCACTGAT	0.797
ACTTGTGTGACCTGAT	0.844
ACTGTCGTGACACTAT	0.79
ACTTGTCGGACACGAT	0.775

Variant	fraction ligated
ACTTGCGTGAACTGAT	0.85
ACTTGTCTGACATGAT	0.834
ACTTTCGTGACACGAT	0.779
ACTTGTCTGACCTGAT	0.783
ATTGTCGTGACACTGA	0.12
ATTGTCGTGACACTGT	0.583
ACTTGTCTGAACTGAT	0.787
ACTTGTGTGCACTGAT	0.875
ACTTGTCGGACCTGAT	0.801
ACTTGTCTGACACTGT	0.285
ACTTGTCTGACACTGA	0.169
ACTTGTCTGACACGAT	0.786
ACTTGTCGGACACTGT	0.236
ACTTGTCGGACACTGA	0.15
ACTTGTCGGACACTAT	0.769
CTTGTCGTGACACTGA	0.00758
CTTGTCGTGACACTGT	0.346
ATTGTCGTGACACGAT	0.806
ACTTGTGTGACACGAT	0.807
ACTTGTCGGACATGAT	0.831
ACTTTCGTGCACTGAT	0.8
CTTGTCGTGACACGAT	0.788
ACTTGCGTGACACTAT	0.802
ACTTGCGTGACCTGAT	0.815
